Each block holds one binder with its values, some of them ahead of it.
Experiments:
[1] = biological target: T1, GST fusion of the cytoplasmic domain of human desmoglein-3 (human, UniProt P32926 641-999); assay: pull-down; GST-tagged cytoplasmic domains of Dsg1-3 immobilised on glutathione sepharose, HaCaT lysate (1 mg), overnight at 4 °C; 10 mM Tris-HCl pH 8.0, 150 mM NaCl, 5 mM EDTA, 0.5% Triton X-100, 60 mM N-octylglucoside; Western blot; GST as negative control; details: one partner purified
T1 construct: cytoplasmic domain of human desmoglein-3, cloned by PCR from HaCaT cells into pGEX-4T1; worked out from the printed primers: the forward primer begins with the codons for LTCDCGA, the reverse primer holds the stop codon (ends DPCSRLI-stop); also called Dsg3 tail; cytoplasmic tail of Dsg3; source: E. coli Rosetta (DE3) pLysS, purified (glutathione sepharose)
T1 sequence (looked up): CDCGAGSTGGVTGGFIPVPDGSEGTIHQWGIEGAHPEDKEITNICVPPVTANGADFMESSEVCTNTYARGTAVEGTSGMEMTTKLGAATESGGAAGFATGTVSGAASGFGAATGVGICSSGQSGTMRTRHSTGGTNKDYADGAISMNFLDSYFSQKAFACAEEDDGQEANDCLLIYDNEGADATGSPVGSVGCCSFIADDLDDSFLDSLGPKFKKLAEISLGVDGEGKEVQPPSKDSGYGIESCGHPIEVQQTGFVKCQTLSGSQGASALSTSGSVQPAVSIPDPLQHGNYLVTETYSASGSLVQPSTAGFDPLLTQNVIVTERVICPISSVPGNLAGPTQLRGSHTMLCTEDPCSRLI

[2] = biological target: T2, flotillin-1-GST fusion (rat, full length) (rat, UniProt Q9Z1E1 1-428); assay: pull-down; Dsg3-MBP (5 μg) immobilised on amylose resin, eluted flotillin-GST proteins in solution; 50 mM Tris-HCl pH 7.5, 150 mM NaCl, 0.01% Triton X-100, 1 mM DTT, 1 mM EDTA, 1% BSA, on ice 2-3 h; Western blot; MBP and GST as controls; details: both partners purified
T2 construct: full length rat flotillin-1 in the pET41a vector; pET41a may add further tags (His, S-tag) besides GST (surmised); also called Flot-GST; flotillin-GST; source: E. coli Rosetta (DE3) pLysS, purified (glutathione sepharose, eluted with reduced glutathione)
T2 sequence (looked up): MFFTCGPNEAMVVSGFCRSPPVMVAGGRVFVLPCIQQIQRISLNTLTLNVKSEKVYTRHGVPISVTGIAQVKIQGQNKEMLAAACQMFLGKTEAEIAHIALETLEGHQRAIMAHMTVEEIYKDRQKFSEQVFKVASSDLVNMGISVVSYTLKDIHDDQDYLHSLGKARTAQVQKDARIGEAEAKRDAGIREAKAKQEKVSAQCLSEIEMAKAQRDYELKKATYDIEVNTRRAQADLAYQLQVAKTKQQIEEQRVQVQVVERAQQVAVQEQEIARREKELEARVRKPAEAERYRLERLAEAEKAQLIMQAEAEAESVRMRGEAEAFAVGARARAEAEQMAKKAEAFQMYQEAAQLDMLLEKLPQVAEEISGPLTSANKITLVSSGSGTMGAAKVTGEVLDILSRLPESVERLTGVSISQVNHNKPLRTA

relative amount pulled down (normalised to the fusion protein), against the Dsg1 and Dsg2 pulldowns [1]: ~2 fold
B1: flotillin-2 (natural protein, human (endogenous in HaCaT), UniProt Q14254 1-428, looked up)
chain: MGNCHTVGPNEALVVSGGCCGSDYKQYVFGGWAWAWWCISDTQRISLEIMTLQPRCEDVETAEGVALTVTGVAQVKIMTEKELLAVACEQFLGKNVQDIKNVVLQTLEGHLRSILGTLTVEQIYQDRDQFAKLVREVAAPDVGRMGIEILSFTIKDVYDKVDYLSSLGKTQTAVVQRDADIGVAEAERDAGIREAECKKEMLDVKFMADTKIADSKRAFELQKSAFSEEVNIKTAEAQLAYELQGAREQQKIRQEEIEIEVVQRKKQIAVEAQEILRTDKELIATVRRPAEAEAHRIQQIAEGEKVKQVLLAQAEAEKIRKIGEAEAAVIEAMGKAEAERMKLKAEAYQKYGDAAKMALVLEALPQIAAKIAAPLTKVDEIVVLSGDNSKVTSEVNRLLAELPASVHALTGVDLSKIPLIKKATGVQV
notes: flotillin-2, endogenous in human HaCaT keratinocytes; also called Flot-2; source: endogenous, HaCaT lysate

relative amount pulled down (normalised to the fusion protein), against the Dsg1 and Dsg2 pulldowns [1]: ~2 fold
B2: flotillin-1 (natural protein, human (endogenous in HaCaT), UniProt O75955 1-427, looked up)
chain: MFFTCGPNEAMVVSGFCRSPPVMVAGGRVFVLPCIQQIQRISLNTLTLNVKSEKVYTRHGVPISVTGIAQVKIQGQNKEMLAAACQMFLGKTEAEIAHIALETLEGHQRAIMAHMTVEEIYKDRQKFSEQVFKVASSDLVNMGISVVSYTLKDIHDDQDYLHSLGKARTAQVQKDARIGEAEAKRDAGIREAKAKQEKVSAQYLSEIEMAKAQRDYELKKAAYDIEVNTRRAQADLAYQLQVAKTKQQIEEQRVQVQVVERAQQVAVQEQEIARREKELEARVRKPAEAERYKLERLAEAEKSQLIMQAEAEAASVRMRGEAEAFAIGARARAEAEQMAKKAEAFQLYQEAAQLDMLLEKLPQVAEEISGPLTSANKITLVSSGSGTMGAAKVTGEVLDILTRLPESVERLTGVSISQVNHKPLRTA
notes: flotillin-1, endogenous in human HaCaT keratinocytes; also called Flot-1; source: endogenous, HaCaT lysate

binding result [2]: binds
B3: Dsg3-MBP fusion protein (domain or fragment, human, UniProt P32926 641-999, looked up)
chain: T1 sequence (looked up)
notes: cytoplasmic domain of human desmoglein-3, cloned by PCR from HaCaT cells into pMAL-c2X; worked out from the printed primers: the forward primer begins with the codons for LTCDCGA, the reverse primer holds the stop codon (ends DPCSRLI-stop); source: E. coli Rosetta (DE3) pLysS, purified (amylose resin)

From paper PMC4922016, “Loss of flotillin expression results in weakened desmosomal adhesion and Pemphigus vulgaris-like localisation of desmoglein-3 in human keratinocytes” (Scientific Reports, 2016)
